From patent US20220119534A1 (DRAGONFLY THERAPEUTICS, published 2022)
Values joined by “and” are separate entries in the source; they are usually repeats but may differ in a detail not shown here. Equal values may be shown once. Each block holds one binder with its values, some of them ahead of it.

Legend:
mFc-cNKG2D = biological target: T1, mFc-cNKG2D (cynomolgus monkey, UniProt P61252 73-216); assay: SPR Biacore 37 C; mFc-tagged cyno NKG2D dimer, TriNKET as analyte; kinetics fit; average of 4
T1 construct: extracellular domain; Made in house (Dragonfly Tx); also called recombinant cyno NKG2D extracellular domain (ECD); mFc-tagged cyno NKG2D dimer; not shown: mouse Fc tag
T1 sequence (looked up): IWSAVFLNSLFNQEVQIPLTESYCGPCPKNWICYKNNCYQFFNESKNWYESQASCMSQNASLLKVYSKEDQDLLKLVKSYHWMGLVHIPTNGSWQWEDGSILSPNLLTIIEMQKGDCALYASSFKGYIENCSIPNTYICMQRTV

Human CLEC12A-His [1] = biological target: T2, Human CLEC12A-His (human, UniProt Q5QGZ9 65-265); assay: SPR Biacore 8K 37 C; TriNKET captured on anti-hFc chip, hCLEC12A-His as analyte; 1:1 fit; control sample, n=2
T2 construct: Recombinant soluble protein made in house (Dragonfly Tx); The hCLEC12A spot of the HuProt array is written under this molecule as well; also called hCLEC12A-His; hCLEC12A; not shown: His tag
T2 sequence: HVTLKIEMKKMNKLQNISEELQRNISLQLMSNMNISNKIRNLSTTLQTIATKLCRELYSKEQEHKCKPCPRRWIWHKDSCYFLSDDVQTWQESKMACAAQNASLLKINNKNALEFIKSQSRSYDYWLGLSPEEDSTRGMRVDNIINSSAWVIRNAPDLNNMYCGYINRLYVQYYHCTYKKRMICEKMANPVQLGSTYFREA

Human CLEC12A-His [2] = biological target: T2, Human CLEC12A-His; assay: SPR Biacore 8K 37 C; TriNKET captured on anti-hFc chip, hCLEC12A-His as analyte; 1:1 fit; un-oxidized control, n=2
Experimental: Briefly, human Fc specific antibodies were covalently immobilized at a density ˜8000-10000 resonance units (RU) on carboxy methyl dextran matrix of a CM5 biosensor chip via amine-coupling chemistry to create an anti-hFc IgG chip. […] Association was monitored for 300 seconds and dissociation was monitored for 600 seconds. Surfaces were regenerated between cycles with three pulses of 10 mM glycine-HCl, pH 1.7 injected for 20 seconds at 100 μL/min. HBS-EP+ (1×) with 0.1 mg/mL BSA buffer was used throughout the experiment. Data were analyzed using Biacore 8K Insight evaluation software (GE Healthcare). The kinetic rate constants and overall affinity were obtained using 1:1 kinetic fit binding model (FIGS. 71A-71B).

mFc-hNKG2D [3] = biological target: T3, mFc-hNKG2D (human, UniProt P26718 73-216); assay: SPR Biacore 8K 37 C; mFc-hNKG2D captured on anti-mFc chip, TriNKET as analyte; steady state fit; control sample, n=3
T3 construct: extracellular domain; Made in house (Dragonfly Tx); the order of tag and ECD follows the name mFc-hNKG2D; also called mFc-tagged human NKG2D; not shown: mouse Fc tag
T3 sequence (looked up): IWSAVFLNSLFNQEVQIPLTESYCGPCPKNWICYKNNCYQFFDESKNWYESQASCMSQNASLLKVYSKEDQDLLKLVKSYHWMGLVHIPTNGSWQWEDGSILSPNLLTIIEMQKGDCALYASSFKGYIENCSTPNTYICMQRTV

mFc-hNKG2D [4] = biological target: T3, mFc-hNKG2D; assay: SPR Biacore 8K 37 C; mFc-hNKG2D captured on anti-mFc chip, TriNKET as analyte; steady state affinity fit; average of 4
Experimental: Association was monitored for 60 seconds, and dissociation was monitored for 60 seconds. Surfaces were regenerated between cycles with three pulses of 10 mM glycine-HCl (pH 1.7) injected for 20 seconds at 100 μL/min.
Two different fits were utilized to obtain the equilibrium affinity data: steady state affinity fit and kinetic fit.

mFc-hNKG2D [5] = biological target: T3, mFc-hNKG2D; assay: SPR Biacore 8K 37 C; mFc-hNKG2D captured on anti-mFc chip, TriNKET as analyte; steady state fit; after 4 wks 40 C in HST pH 6.0
Experimental: Association was monitored for 60 seconds and dissociation was monitored for 60 seconds. Surfaces were regenerated between cycles with three pulses of 10 mM glycine-HCl, pH 1.7 injected for 20 seconds at 100 μL/min. HBS-EP+ (1×) buffer was used throughout the experiment. Data were analyzed using Biacore 8K Insight evaluation software (GE Healthcare).

Human CD16b = biological target: T4, Human CD16b (human, UniProt O75015 17-200, limits assumed, biotinylated); assay: SPR, steady state fit
T4 construct: Bought recombinant receptor; also called hFcγRIIIb

Human CD16a V158 = biological target: T5, Human CD16a V158 (human, UniProt P08637 17-208, biotinylated); assay: SPR, hCD16a V158 captured, kinetic fit; average for AB0192
T5 construct: Bought recombinant receptor; also called hCD16a (V158); hFcγRIIIa V158

[6] = biological target: T6, recombinant human CD16a V158 (human, UniProt P08637 17-208, biotinylated); assay: SPR 25C, kinetic fit
T6 construct: also called FcγRIIIa V158; hCD16aV
T6 sequence (P08637 17-208 F176V limits assumed): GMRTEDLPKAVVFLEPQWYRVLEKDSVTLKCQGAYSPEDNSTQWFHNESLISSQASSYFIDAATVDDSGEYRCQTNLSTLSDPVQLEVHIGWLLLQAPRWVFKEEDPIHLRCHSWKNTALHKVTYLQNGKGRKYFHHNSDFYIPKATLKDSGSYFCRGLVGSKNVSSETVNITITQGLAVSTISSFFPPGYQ

T5 sequence (P08637 17-208 F176V limits assumed): as above
T4 sequence (O75015 17-200 limits assumed): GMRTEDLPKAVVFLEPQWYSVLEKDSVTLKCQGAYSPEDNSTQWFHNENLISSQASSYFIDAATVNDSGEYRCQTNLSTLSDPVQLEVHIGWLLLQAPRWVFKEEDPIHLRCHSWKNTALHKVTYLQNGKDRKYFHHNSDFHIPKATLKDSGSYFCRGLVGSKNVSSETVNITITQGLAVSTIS

- Kd (mFc-cNKG2D): 839 nM
- Kd (Human CLEC12A-His [1]): 0.98 nM
- koff (Human CLEC12A-His [1]): 0.000735 s⁻¹
- kon (Human CLEC12A-His [1]): 750000 M⁻¹ s⁻¹
- Kd (Human CLEC12A-His [2]): 1.1 nM
- koff (Human CLEC12A-His [2]): 0.000858 s⁻¹
- kon (Human CLEC12A-His [2]): 799000 M⁻¹ s⁻¹
- Kd (mFc-hNKG2D [3]): 664 nM
- Kd (mFc-hNKG2D [4]): 727 nM
- Kd (mFc-hNKG2D [5]): 776 nM
B1: F3'-1602 TriNKET (bispecific antibody, human IgG1, kappa)
chain: QLQLQESGPGLVKPSETLSLTCTVSGFSLTNYGLHWIRQPPGKCLEWIGVIWSGGKTDYNPSLKSRVTISKDTSKNQFSLKLSSVQAADTAVYYCAKYDYDDSLDYWGQGTLVTVSSGGGGSGGGGSGGGGSGGGGSDIQMTQSPSSLSASVGDRVTITCHASQNINFWLSWYQQKPGKAPKLLIYEASNLHTGVPSRFSGSGSGTRFTLTISSLQPEDIATYYCQQSHSYPLTFGCGTKLEIKGSDKTHTCPPCPAPELLGGPSVFLFPPKPKDTLMISRTPEVTCVVVDVSHEDPEVKFNWYVDGVEVHNAKTKPREEQYNSTYRVVSVLTVLHQDWLNGKEYKCKVSNKALPAPIEKTISKAKGQPREPRVYTLPPCRDELTKNQVSLTCLVKGFYPSDIAVEWESNGQPENNYKTTPPVLVSDGSFTLYSKLTVDKSRWQQGNVFSCSVMHEALHNHYTQKSLSLSPG
heavy: EVQLVESGGGLVKPGGSLRLSCAASGFTFSSYSMNWVRQAPGKGLEWVSSISSSSSYIYYADSVKGRFTISRDNAKNSLYLQMNSLRAEDTAVYYCARGAPIGAAAGWFDPWGQGTLVTVSSASTKGPSVFPLAPSSKSTSGGTAALGCLVKDYFPEPVTVSWNSGALTSGVHTFPAVLQSSGLYSLSSVVTVPSSSLGTQTYICNVNHKPSNTKVDKKVEPKSCDKTHTCPPCPAPELLGGPSVFLFPPKPKDTLMISRTPEVTCVVVDVSHEDPEVKFNWYVDGVEVHNAKTKPREEQYNSTYRVVSVLTVLHQDWLNGKEYKCKVSNKALPAPIEKTISKAKGQPREPQVCTLPPSRDELTENQVSLTCLVKGFYPSDIAVEWESNGQPENNYKTTPPVLDSDGSFFLYSWLTVDKSRWQQGNVFSCSVMHEALHNHYTQKSLSLSPG
light: DIQMTQSPSSVSASVGDRVTITCRASQGISSWLAWYQQKPGKAPKLLIYAASSLQSGVPSRFSGSGSGTDFTLTISSLQPEDFATYYCQQGVSFPRTFGGGTKVEIKRTVAAPSVFIFPPSDEQLKSGTASVVCLLNNFYPREAKVQWKVDNALQSGNSQESVTEQDSKDSTYSLSSTLTLSKADYEKHKVYACEVTHQGLSSPVTKSFNRGEC
notes: Trispecific F3' format: CLEC12A scFv-Fc paired with NKG2D Fab-Fc; Stressed and control samples of the stability studies are the same molecule; also called AB0237

- Kd (Human CD16b): 6800 nM and 6000 nM and 5300 nM
- Kd (Human CD16a V158): 178 nM
- koff (Human CD16a V158): 0.0199 s⁻¹
- kon (Human CD16a V158): 112000 M⁻¹ s⁻¹
B2: AB0192 TriNKET (other)
chain: EVQLVESGGGVVQPGGSLRLSCAASGFTFNAFGMHWVRQAPGKCLEWVAFISSGSTSIYYANTVKGRFTISRDNSKNTLYLQMNSLRAEDTAVYYCARDGYPTGGAMDYWGQGTSVTVSSGGGGSGGGGSGGGGSGGGGSDIQMTQSPSSLSASVGDRVTITCKASQDIYNYLSWFQQKPGKAPKPLIYRANILVSGVPSRFSGSGSGQDYTFTISSLQPEDIATYYCLQFDAFPFTFGCGTKLEIKGSDKTHTCPPCPAPELLGGPSVFLFPPKPKDTLMISRTPEVTCVVVDVSHEDPEVKFNWYVDGVEVHNAKTKPREEQYNSTYRVVSVLTVLHQDWLNGKEYKCKVSNKALPAPIEKTISKAKGQPREPRVYTLPPCRDELTKNQVSLTCLVKGFYPSDIAVEWESNGQPENNYKTTPPVLVSDGSFTLYSKLTVDKSRWQQGNVFSCSVMHEALHNHYTQKSLSLSPG
heavy: EVQLVESGGGLVKPGGSLRLSCAASGFTFSSYSMNWVRQAPGKGLEWVSSISSSSSYIYYADSVKGRFTISRDNAKNSLYLQMNSLRAEDTAVYYCARGAPIGAAAGWFDPWGQGTLVTVSSASTKGPSVFPLAPSSKSTSGGTAALGCLVKDYFPEPVTVSWNSGALTSGVHTFPAVLQSSGLYSLSSVVTVPSSSLGTQTYICNVNHKPSNTKVDKKVEPKSCDKTHTCPPCPAPELLGGPSVFLFPPKPKDTLMISRTPEVTCVVVDVSHEDPEVKFNWYVDGVEVHNAKTKPREEQYNSTYRVVSVLTVLHQDWLNGKEYKCKVSNKALPAPIEKTISKAKGQPREPQVCTLPPSRDELTENQVSLTCLVKGFYPSDIAVEWESNGQPENNYKTTPPVLDSDGSFFLYSWLTVDKSRWQQGNVFSCSVMHEALHNHYTQKSLSLSPG
light: DIQMTQSPSSVSASVGDRVTITCRASQGISSWLAWYQQKPGKAPKLLIYAASSLQSGVPSRFSGSGSGTDFTLTISSLQPEDFATYYCQQGVSFPRTFGGGTKVEIKRTVAAPSVFIFPPSDEQLKSGTASVVCLLNNFYPREAKVQWKVDNALQSGNSQESVTEQDSKDSTYSLSSTLTLSKADYEKHKVYACEVTHQGLSSPVTKSFNRGEC
notes: the condition stands under assay; also called AB0192 Lot AB0192-005

- Kd [6]: 234 nM and 235 nM and 243 nM and 241 nM
- koff [6]: 0.022 s⁻¹ and 0.023 s⁻¹
- kon [6]: 96000 M⁻¹ s⁻¹ and 95000 M⁻¹ s⁻¹ and 93000 M⁻¹ s⁻¹
B3: F3'-1602 TriNKET (other)
chain: QLQLQESGPGLVKPSETLSLTCTVSGFSLTNYGLHWIRQPPGKCLEWIGVIWSGGKTDYNPSLKSRVTISKDTSKNQFSLKLSSVQAADTAVYYCAKYDYDDSLDYWGQGTLVTVSSGGGGSGGGGSGGGGSGGGGSDIQMTQSPSSLSASVGDRVTITCHASQNINFWLSWYQQKPGKAPKLLIYEASNLHTGVPSRFSGSGSGTRFTLTISSLQPEDIATYYCQQSHSYPLTFGCGTKLEIKGSDKTHTCPPCPAPELLGGPSVFLFPPKPKDTLMISRTPEVTCVVVDVSHEDPEVKFNWYVDGVEVHNAKTKPREEQYNSTYRVVSVLTVLHQDWLNGKEYKCKVSNKALPAPIEKTISKAKGQPREPRVYTLPPCRDELTKNQVSLTCLVKGFYPSDIAVEWESNGQPENNYKTTPPVLVSDGSFTLYSKLTVDKSRWQQGNVFSCSVMHEALHNHYTQKSLSLSPG
heavy: EVQLVESGGGLVKPGGSLRLSCAASGFTFSSYSMNWVRQAPGKGLEWVSSISSSSSYIYYADSVKGRFTISRDNAKNSLYLQMNSLRAEDTAVYYCARGAPIGAAAGWFDPWGQGTLVTVSSASTKGPSVFPLAPSSKSTSGGTAALGCLVKDYFPEPVTVSWNSGALTSGVHTFPAVLQSSGLYSLSSVVTVPSSSLGTQTYICNVNHKPSNTKVDKKVEPKSCDKTHTCPPCPAPELLGGPSVFLFPPKPKDTLMISRTPEVTCVVVDVSHEDPEVKFNWYVDGVEVHNAKTKPREEQYNSTYRVVSVLTVLHQDWLNGKEYKCKVSNKALPAPIEKTISKAKGQPREPQVCTLPPSRDELTENQVSLTCLVKGFYPSDIAVEWESNGQPENNYKTTPPVLDSDGSFFLYSWLTVDKSRWQQGNVFSCSVMHEALHNHYTQKSLSLSPG
light: DIQMTQSPSSVSASVGDRVTITCRASQGISSWLAWYQQKPGKAPKLLIYAASSLQSGVPSRFSGSGSGTDFTLTISSLQPEDFATYYCQQGVSFPRTFGGGTKVEIKRTVAAPSVFIFPPSDEQLKSGTASVVCLLNNFYPREAKVQWKVDNALQSGNSQESVTEQDSKDSTYSLSSTLTLSKADYEKHKVYACEVTHQGLSSPVTKSFNRGEC
notes: CLEC12A scFv-Fc, NKG2D A49MI Fab-Fc, human IgG1 Fc; also called AB0237
